Legend:
Assay in all cases: ITC; MicroCal iTC200, 25°C, 20 mM Tris/HCl pH 9.0, 100 mM NaCl; SH3B6, sdAb19 or Neffin at 200 μM injected from the syringe into 20 μM Nef in the cell
[1] = molecular target: HIV-1 NefNA7 (41–206, C206A) (HIV-1 (NA7))
[2] = molecular target: HIV-1 Nef_(NL4–3) (41–206, C206A) (HIV-1 (NL4-3))
[3] = molecular target: HIV-1 NefSF2 (45–210, C59S, C210A) (HIV-1 (SF2)) (UniProt P03407)

Substance | Kd [1] [µM] | dH [1] [kJ/mol] | stoichiometry N [1] | Kd [2] [µM] | dH [2] [kJ/mol] | stoichiometry N [2] | Kd [3] [µM] | dH [3] [kJ/mol] | stoichiometry N [3]
Neffin (sdAb19–SH3B6 fusion, 8 aa linker) (from UniProt P08631 77-138) (designed binder) | 0.0144 | -145 | 0.67 | 0.0039 | -139 | 0.65 | 0.0016 | -160 | 0.66
Neffin_(triple) (Neffin with D60R/G102R/S103E in the sdAb19 subunit) (from UniProt P08631 77-138) (designed binder) | – | – | – | – | – | – | 0.0233 | -75.9 | 1.08
human Hck-SH3B6 (residues 79–138 of human Hck) (from UniProt P08631 79-138) (designed binder) | – | – | – | – | – | – | 0.0187 | -94.2 | 0.81
